From publication PMC9107221 (2022)

B1: Chikungunya/SL-CK1 E2 glycoprotein (natural protein)
chain: not shown

Experiments:
Test in all cases: SPR
BiNb-2E8 = BiNb-2E8 (alpaca)
TriNb-3C5 = TriNb-3C5 (alpaca)
TriNb-2E8 = TriNb-2E8 (alpaca)
BiNb-3C5 = BiNb-3C5 (alpaca)
[1] = target: B1

B1
koff (BiNb-2E8): 0.000352 s⁻¹ | koff (TriNb-3C5): 0.00609 s⁻¹ | koff (TriNb-2E8): 0.00274 s⁻¹ | koff (BiNb-3C5): 0.00549 s⁻¹

B2: MoNb-3C5 (VHH)
VHH: AVQLVESGGGLVQAGGSLRLSCAASGRSFSAYTMAWFRQAPGKEREWMASIVRSGGPTYYADSVKDRFTISRENARNTAYLQMNSLKPEDTAVYYCAADLGWTYSRSPELFGSWGQGTQVTVSS
koff [1]: 0.00991 s⁻¹
